B1: RA341 (nucleic acid)
DNA: GCGGAATACCAGCATCGTCTTGATGCCCTTGGAAGTCCGCGTCCTGGATTCGCGGAAACGCGTACATCCAGCTGACGAGTCCCAAATAGGACGAAACGCGC
modifications: expressed or natural sequence
B2: RA323 (nucleic acid)
DNA: GCGCGTCCTGGATTCGCGCGGAATACCAGCATCGTCTTGATGCCCTTGGAAGTCCGGAAACGCGTACATCCAGCTGACGAGTCCCAAATAGGACGAAACGCGC
modifications: expressed or natural sequence
B3: RA320 (nucleic acid)
DNA: GCGCGTCCTGGATTCGCGGAAACGCGTACATCCAGCTGACGAGTAGTGATACCAGCATCGTCTTGATGCCCTTGGCAGCACTCCCAAATAGGACGAAACGCGC
modifications: expressed or natural sequence
B4: RA336 (nucleic acid)
DNA: GCGCGTCCTGGATTCGCGGAAAGTGATACCAGCATCGTCTTGATGCCCTTGGCAGCACTACGCGTACATCCAGCTGACGAGTCCCAAATAGGACGAAACGCGC
modifications: expressed or natural sequence
B5: RA337 (nucleic acid)
DNA: GCGCGTAGAATACCAGCATCGTCTTGATGCCCTTGGAAGTCTCCTGGATTCGCGGAAACGCGTACATCCAGCTGACGAGTCCCAAATAGGACGAAACGCGC
modifications: expressed or natural sequence
B6: RA345 (nucleic acid)
DNA: GCGCGTCCTGGATTCGCGGAAACGCGTACATCCAGCTGACGAGTCCCAAATAGGACGAAACGCGAGAATACCAGCATCGTCTTGATGCCCTTGGAAGTCTC
modifications: expressed or natural sequence
B7: RA340 (nucleic acid)
DNA: GCGCAGTGATACCAGCATCGTCTTGATGCCCTTGGCAGCACTGTCCTGGATTCGCGGAAACGCGTACATCCAGCTGACGAGTCCCAAATAGGACGAAACGCGC
modifications: expressed or natural sequence
B8: RA334 (nucleic acid)
DNA: GCGCGTCCTGGATTCGCGGAAACGCGTACCCGGAATACCAGCATCGTCTTGATGCCCTTGGAAGTCCGGATCCAGCTGACGAGTCCCAAATAGGACGAAACGCGC
modifications: expressed or natural sequence
B9: RA344 (nucleic acid)
DNA: GCGCGTCCTGGATTCGCGGAAACCCGGAATACCAGCATCGTCTTGATGCCCTTGGAAGTCCGGGCGTACATCCAGCTGACGAGTCCCAAATAGGACGAAACGCGC
modifications: expressed or natural sequence
B10: RA338 (nucleic acid)
DNA: GCGCGTCCTGGATTCGCGGAAACGAGAATACCAGCATCGTCTTGATGCCCTTGGAAGTCTCGCGCGTACATCCAGCTGACGAGTCCCAAATAGGACGAAACGCGC
modifications: expressed or natural sequence
B11: RA333 (nucleic acid)
DNA: GCGCGTCCTGGATTCGCGGAAACGCGTACATCCAGCTGACGAGTCCCAAAGAATACCAGCATCGTCTTGATGCCCTTGGAAGTCTATAGGACGAAACGCGC
modifications: expressed or natural sequence
B12: RA329 (nucleic acid)
DNA: GCGCGTCCTGGATTCGCGGAAACGCGTACATCCAGCTGACGAGTCCCAAATAGGACGAAACAGTGATACCAGCATCGTCTTGATGCCCTTGGCAGCACTGCGC
modifications: expressed or natural sequence
B13: RA327 (nucleic acid)
DNA: GCGCGTCCTGGATTCGCGGAAACGCGTAGTGATACCAGCATCGTCTTGATGCCCTTGGCAGCACTACATCCAGCTGACGAGTCCCAAATAGGACGAAACGCGC
modifications: expressed or natural sequence
B14: RA325 (nucleic acid)
DNA: GCGCGTCCTGGATTCGCGGAAACGCGTACATCCAGCTGACGAGTCCCAAATAGGAGGAATACCAGCATCGTCTTGATGCCCTTGGAAGTCCCAAAACGCGC
modifications: expressed or natural sequence
B15: RA322 (nucleic acid)
DNA: GCGCGTCCTGGATTCGCGGAGAATACCAGCATCGTCTTGATGCCCTTGGAAGTCTAAACGCGTACATCCAGCTGACGAGTCCCAAATAGGACGAAACGCGC
modifications: expressed or natural sequence
B16: RA339 (nucleic acid)
DNA: GCGCGTCCTGGATTGGAATACCAGCATCGTCTTGATGCCCTTGGAAGTCCCGCGGAAACGCGTACATCCAGCTGACGAGTCCCAAATAGGACGAAACGCGC
modifications: expressed or natural sequence
B17: RA342 (nucleic acid)
DNA: GCGCGTCCTGGATTCGCGGAAACGCGTACGGAATACCAGCATCGTCTTGATGCCCTTGGAAGTCCGCATCCAGCTGACGAGTCCCAAATAGGACGAAACGCGC
modifications: expressed or natural sequence
B18: RA343 (nucleic acid)
DNA: GCGCGTCCGGAATACCAGCATCGTCTTGATGCCCTTGGAAGTCCGCTGGATTCGCGGAAACGCGTACATCCAGCTGACGAGTCCCAAATAGGACGAAACGCGC
modifications: expressed or natural sequence
B19: RA321 (nucleic acid)
DNA: GCGCGTCCTGGATTCGCGGAAACGCGTACATCCAGCTAGTGATACCAGCATCGTCTTGATGCCCTTGGCAGCACTGACGAGTCCCAAATAGGACGAAACGCGC
modifications: expressed or natural sequence
B20: RA326 (nucleic acid)
DNA: GCTGTCACCGGAATACCAGCATCGTCTTGATGCCCTTGGAAGTCCGGTCTGATGAGTCCCTTGAGGACGAAACAGC
modifications: expressed or natural sequence
B21: RA331 (nucleic acid)
DNA: GCGCGTCCTGGGAATACCAGCATCGTCTTGATGCCCTTGGAAGTCCGATTCGCGGAAACGCGTACATCCAGCTGACGAGTCCCAAATAGGACGAAACGCGC
modifications: expressed or natural sequence
B22: RA324 (nucleic acid)
DNA: GCGCGTCCTGGATTCGCGGAAACCGGAATACCAGCATCGTCTTGATGCCCTTGGAAGTCCGGCGTACATCCAGCTGACGAGTCCCAAATAGGACGAAACGCGC
modifications: expressed or natural sequence
B23: RA332 (nucleic acid)
DNA: GCGCGTCCTGGATTCGCGGAAACGCGTACATCCAGCTGACGAGTCGGAATACCAGCATCGTCTTGATGCCCTTGGAAGTCCCCAAATAGGACGAAACGCGC
modifications: expressed or natural sequence
B24: RA330 (nucleic acid)
DNA: GCGCGTCCTGGGAGAATACCAGCATCGTCTTGATGCCCTTGGAAGTCTCATTCGCGGAAACGCGTACATCCAGCTGACGAGTCCCAAATAGGACGAAACGCGC
modifications: expressed or natural sequence
B25: RA335 (nucleic acid)
DNA: GCGCGTCCTGGATTCGCGGAAACGCGTAGGAATACCAGCATCGTCTTGATGCCCTTGGAAGTCCCATCCAGCTGACGAGTCCCAAATAGGACGAAACGCGC
modifications: expressed or natural sequence
B26: RA328 (nucleic acid)
DNA: GCGCGTCCTGGATTCGCGGAAACGCGTACATCCAGCTGACAGTGATACCAGCATCGTCTTGATGCCCTTGGCAGCACTGAGTCCCAAATAGGACGAAACGCGC
modifications: expressed or natural sequence
B27: RA032 (nucleic acid)
DNA: GCGCGTCCTGGATTCGCGGAAAAGTGATACCAGCATCGTCTTGATGCCCTTGGCAGCACTCGCGTACATCCAGCTGACGAGTCCCAAATAGGACGAAACGCGC
modifications: expressed or natural sequence
B28: RA033 (nucleic acid)
DNA: GCGCGTCCTGGATTCGCGGAAACGCGTACATCCAGCTGACGAGTCCCAAATCCGGAATACCAGCATCGTCTTGATGCCCTTGGAAGTCCGGAGGACGAAACGCGC
modifications: expressed or natural sequence

One series deals with Renilla luciferase RNA. Briefly: Barcoded aptazyme variant library screen: un-cleaved Renilla luciferase RNA by barcode read counts, HEK293-T cells. The settings on record: un-cleaved Renilla luciferase RNA by barcode read counts; with 1 mM theophylline (ON) over without theophylline (OFF); HEK293-T cells; triplicate. It counts as cell-based. The gist of the method:
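Aptazyme variants (seven theophylline aptamers inserted after each T3H48 ribozyme nucleotide, 9-nt barcoded) cloned into the 3′ UTR of Renilla luciferase in psiCHECK-2; cells cultured ± theophylline, in triplicate. RNA and DNA barcodes amplified and sequenced; normalized read counts gave un-cleaved RNA fraction and ON/OFF fold-change.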
As for B1, the “Fold change in RNA expression between the ON state and the OFF state” value (shortened to “Fold change”) came out at 0.9.

For the molecule B2, the “Fold change” value amounted to 0.9.

As for B3, the “Fold change” value came to 0.9.

Consider B4, for which the “Fold change” value came out at 0.9.

In the case of B5, the “Fold change” value turned out to be 0.9.

Consider B6, for which the “Fold change” value turned out to be 0.9.

As to B7, the “Fold change” value worked out at 0.9.

With B8, the “Fold change” value was 0.9.

Consider B9, for which the “Fold change” value is 0.9.

In the case of B10, the “Fold change” value was found to be 0.9.

Take B11: the “Fold change” value turned out to be 0.9.

For B12, the “Fold change” value is given as 0.9.

Regarding B13, the “Fold change” value was determined as 0.9.

In the case of B14, the “Fold change” value was found to be 0.9.

For the molecule B15, the “Fold change” value amounted to 0.9.

B16: the “Fold change” value amounted to 0.9.

B17: the “Fold change” value is given as 0.9.

In the case of B18, the “Fold change” value is 0.9.

Take B19: the “Fold change” value is given as 0.9.

Regarding B20, the “Fold change” value was found to be 0.9.

For B21, the “Fold change” value worked out at 0.9.

Consider B22, for which the “Fold change” value is on record as 0.9.

For B23, the “Fold change” value is recorded as 0.9.

With B24, the “Fold change” value is given as 0.9.

For the molecule B25, the “Fold change” value is 0.9.

Consider B26, for which the “Fold change” value is reported as 0.9.

The same series, now with this note: un-cleaved Renilla luciferase RNA, HEK293-T cells cultured with 1 mM theophylline (ON) over without theophylline (OFF); barcode read counts, triplicate.
Consider B27, for which the “Fold change” value turned out to be 2.3 fold.

Turning to B28, the “Fold change” value stood at 2.3 fold.

For the origin of these results see patent US20260167959A1, “APTAZYME-BASED REGULATABLE GENE EXPRESSION SYSTEMS” (REJUVENATE BIO INC, priority 2022, published 2026).
